Source: patent US10005846 (LIFEARC, dated 2018)

T1: cynomolgus monkey TG2 (cynomolgus monkey, UniProt A0A2K5VXI8 1-687)
T1 construct: Bought recombinant protein; also called cynomogulus monkey TG2; cyano TG2
T1 sequence: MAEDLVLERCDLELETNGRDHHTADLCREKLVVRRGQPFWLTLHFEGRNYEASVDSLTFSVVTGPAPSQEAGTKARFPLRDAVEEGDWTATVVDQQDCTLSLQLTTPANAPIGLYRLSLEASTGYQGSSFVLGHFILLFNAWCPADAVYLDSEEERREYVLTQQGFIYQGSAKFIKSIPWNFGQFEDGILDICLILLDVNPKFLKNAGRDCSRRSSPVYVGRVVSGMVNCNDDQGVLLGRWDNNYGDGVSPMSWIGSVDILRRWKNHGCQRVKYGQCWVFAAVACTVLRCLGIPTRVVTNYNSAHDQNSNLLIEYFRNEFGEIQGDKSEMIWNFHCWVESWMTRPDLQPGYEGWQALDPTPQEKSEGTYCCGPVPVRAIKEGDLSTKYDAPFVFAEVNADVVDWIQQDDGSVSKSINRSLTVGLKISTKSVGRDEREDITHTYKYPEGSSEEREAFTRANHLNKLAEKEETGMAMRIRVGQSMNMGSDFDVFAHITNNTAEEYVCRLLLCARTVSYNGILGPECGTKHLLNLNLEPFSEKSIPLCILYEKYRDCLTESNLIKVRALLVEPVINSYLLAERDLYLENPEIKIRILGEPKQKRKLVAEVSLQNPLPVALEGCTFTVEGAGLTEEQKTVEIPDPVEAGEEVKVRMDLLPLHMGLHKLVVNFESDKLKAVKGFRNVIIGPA

T2: human transglutaminase type 2 (TG2) (human, UniProt P21980 1-687)
T2 construct: Recombinant full-length human TG2 (Zedira; cat; T002 in the Biacore work); Also used here for the endogenous TG2 of HepG2 lysate and HK-2 cells; also called hTG2; rhTG2
T2 sequence: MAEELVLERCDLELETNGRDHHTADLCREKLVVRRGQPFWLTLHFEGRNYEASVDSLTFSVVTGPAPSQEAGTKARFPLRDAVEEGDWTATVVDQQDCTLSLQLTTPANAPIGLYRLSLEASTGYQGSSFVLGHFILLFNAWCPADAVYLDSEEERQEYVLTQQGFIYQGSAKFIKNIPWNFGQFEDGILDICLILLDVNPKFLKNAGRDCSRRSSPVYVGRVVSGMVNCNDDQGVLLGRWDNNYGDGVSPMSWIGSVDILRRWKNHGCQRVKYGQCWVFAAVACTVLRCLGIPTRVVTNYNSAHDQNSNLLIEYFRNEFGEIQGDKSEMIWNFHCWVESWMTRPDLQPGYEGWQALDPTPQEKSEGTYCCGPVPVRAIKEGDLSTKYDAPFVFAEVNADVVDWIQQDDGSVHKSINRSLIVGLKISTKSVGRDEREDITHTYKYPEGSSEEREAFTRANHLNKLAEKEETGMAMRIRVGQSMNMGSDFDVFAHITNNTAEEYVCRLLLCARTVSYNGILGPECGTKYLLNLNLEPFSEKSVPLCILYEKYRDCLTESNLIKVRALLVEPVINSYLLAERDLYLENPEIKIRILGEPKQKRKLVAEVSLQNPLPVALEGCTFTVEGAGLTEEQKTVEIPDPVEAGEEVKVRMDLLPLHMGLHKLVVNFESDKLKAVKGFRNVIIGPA

B1: hAB004 (hAB001AE) humanised AB1 antibody (antibody, V domains shown)
VH: EVQLLESGGGLVQPGGSLRLSCAASGFTFSSSAMSWVRQAPGKGLEWVSTISVGGGKTYYPDSVKGRFTISRDNSKNTLYLQMNSLRAEDTAVYYCAKLISLYWGQGTLVTVSS
VL: EIVLTQSPSSLSASVGDRVTITCKASQDINSYLTWYQQKPGKAPKLLIYRTNRLFDGVPSRFSGSGSGTDFFFTISSLQPEDFGTYYCLQYDDFPYTFGGGTKLEIK
notes: they were captured by anti-human IgG1 (Fc); also called Heavy Chain version RHA with Light Chain version RKE
B2: hBB001BB humanised BB7 antibody (antibody, V domains shown)
VH: EVQLLESGGGLVQPGGSLRLSCAASGIIFSSSAMSWVRQAPGKGLEWVATISSGGRSTYYPDSVKGRFTVSRDSSKNTLYLQMNSLRAEDTAVYYCAKLISPYWGQGTLVTVSS
VL: DIKMTQSPSSLSASVGDRVTITCKASQDINSYLTWFQQKPGKAPKTLIYLTNRLMDGVPSRFSGSGSGQEFLLTISSLQPEDFATYYCLQYVDFPYTFGQGTKVEIK
notes: BB is read as heavy chain hBB001HB (BB7_RHB) with kappa chain hBB001KB (BB7_RKB)
B3: hBB001AA humanised BB7 antibody (antibody, V domains shown)
VH: EVQLLESGGGLVQPGGSLRLSCAASGFTFSSSAMSWVRQAPGKGLEWVSTISSGGRSTYYPDSVKGRFTISRDNSKNTLYLQMNSLRAEDTAVYYCAKLISPYWGQGTLVTVSS
VL: DIQMTQSPSSLSASVGDRVTITCKASQDINSYLTWFQQKPGKAPKSLIYLTNRLMDGVPSRFSGSGSGTDFFLTISSLQPEDFATYYCLQYVDFPYTFGQGTKVEIK
notes: captured by anti-human IgG1 (Fc); also called hBB01AA

Experiments:
[1] = biological target: T1, cynomolgus monkey TG2; experiment: ELISA on immobilised cynomolgus monkey TG2; r2 0.9766; EC50 95% confidence range 0.04047 to 0.09246 [panel B]
Experimental: (§1) Antibody binding to human and cynomolgus monkey TG2 was determined in an ELISA assay. Clear polystyrene "Maxisorp" 96-well plates (Nunc) were coated with 50 ng purified human or cynomogulus monkey TG2 in 50 µl 0.05 M carbonate-bicarbonate buffer pH 9.6 at 4° C. overnight. Control wells were coated with 50 µl 100 µg/ml bovine serum albumin (BSA). Plates were washed 3× with 300 µl phosphate-buffered saline pH7.4 (PBS) containing 0.1% Tween 20 (PBST) and blocked with 300 µl 3% w/v Marvel skimmed milk in PBS for 1 hour at room temperature. After 3× wash with PBST, 50 µl protein-A purified chimeric or humanised anti-TG2 antibodies or human IgG1 kappa […] control antibody or CUB7402 (Abcam) were serially diluted 4-fold from a top concentration of 50 nM in PBS, and added to the plate in duplicate. […] After 3× washes with PBST, the plates were developed with 50 µl TMB substrate (Sigma) for 5 min at room temperature before stopping the reaction with 25 µl 0.5M H2SO4 and reading absorbance at 450 nm in a microtiter plate reader (BioTek EL808). Dose response curves were analysed and EC50 values and other statistical parameters determined using a 4-parameter logistical fit of the data (GraphPad Prism).

[2] = biological target: T1, cynomolgus monkey TG2; experiment: SPR (Biacore T200), antibody captured on anti-human IgG1 Fc chip, TG2 injected; calcium condition not marked in the row
Experimental: (§2) Recombinant cynomolgus monkey TG2 was obtained from Trenzyme. Surface plasmon resonance (SPR) was measured on a Biacore T200 instrument (GE Healthcare). CM5 chips (GE Healthcare cat. no.: BR-1006-68) were coated with monoclonal mouse anti-human IgG1 (Fc) (MAH) antibody (GE Healthcare cat. no.: BR-1008-39) by amine-coupling as described in the manufacturers instructions. HBS-EP+ buffer (0.01 M HEPES, 0.15 M NaCl, 3 mM EDTA, 0.05% v/v Surfactant P20) and HBS-P+ buffer (0.01 M HEPES, 0.15 M NaCl, 0.05% Surfactant P20) were purchased from GE Healthcare as 10× stocks (cat. nos.: BR-1006-69 and BR-1006-71). Calcium Chloride solution was obtained from Sigma Aldrich (cat. no.:21115).
(§3) The method employed to determine the affinity of the anti-TG2 antibodies involved the capture of the chimeric or humanised antibodies on a MAH coated CM5 chip, followed by the injection of a series of TG2 samples in running buffer. The running buffer was 1×HBS-P+ containing 1 mM CaCl_2, or 1×HBS-EP+ for calcium-free experiments. Antibody capture was carried out for a contact time of 120 seconds at a flow rate of 10 μl/min resulting in the capture of approximately 40-80 RU. TG2 was injected over the immobilised antibody at concentrations ranging from 25 nM to 400 nM with a contact time up to 600 seconds at a flow rate of 30 μl/min. Dissociation of TG2 was typically measured for up to 5400 seconds (1.5 hours). Regeneration of the chip was then performed using 3 M MgCl_2, for a contact time of 60 seconds at a flow rate of […], followed by a 300 s stabilisation period before the next sample. For each of human and cynomolgus monkey TG2, at least 5 injections at a variety of concentrations were performed in at least two separate experiments.
(§4) Kinetic data were exported from the Biacore T200 Evaluation Software and analysed using GraphPad Prism, where the association phases and dissociation phases were analysed separately using a one phase association model and one-phase exponential decay model respectively. Association rates ($kon$) were calculated for each curve individually, and dissociation rates ($koff$) values from the long dissociation phase data collected. Where $koff$ values were calculated to be $<1\times10^-5$ s^-1, values were set at 1×10^-5 for analysis, as rates slower than this could not be estimated accurately.

[3] = biological target: T2, human transglutaminase type 2 (TG2); experiment: as above
Experimental: as §2, §3, §4

[4] = biological target: T2, human transglutaminase type 2 (TG2); experiment: ELISA on immobilised human TG2; r2 0.9794; EC50 95% confidence range 0.01199 to 0.03342 [panel B]
Experimental: as §1

[5] = biological target: T1, cynomolgus monkey TG2; experiment: cell-based or functional assay
[6] = biological target: T2, human transglutaminase type 2 (TG2); experiment: cell-based or functional assay
[7] = biological target: T2, human transglutaminase type 2 (TG2); experiment: cell-based or functional assay; remark: listed apart in the source
[8] = biological target: T1, cynomolgus monkey TG2; experiment: ELISA on immobilised cynomolgus monkey TG2; r2 0.9361; EC50 95% confidence range 0.04198 to 0.1296 [panel A]
Experimental: as §1

[9] = biological target: T2, human transglutaminase type 2 (TG2); experiment: ELISA on immobilised human TG2; r2 0.9771; EC50 95% confidence range 0.04636 to 0.08491 [panel A]
Experimental: as §1

[10] = biological target: T2, human transglutaminase type 2 (TG2); experiment: cell-based or functional assay; remark: listed apart in the source
[11] = biological target: T2, human transglutaminase type 2 (TG2); experiment: ELISA on immobilised human TG2; r2 0.9792; EC50 95% confidence range ND [panel A]
Experimental: as §1

[12] = biological target: T1, cynomolgus monkey TG2; experiment: ELISA on immobilised cynomolgus monkey TG2; r2 0.9329; EC50 95% confidence range 0.03522 to 0.08934 [panel A]
Experimental: as §1

Binder	EC50 [1] [nM]	Kd [2] [nM]	koff [2] [s⁻¹]	kon [2] [M⁻¹ s⁻¹]	Kd [3] [nM]	koff [3] [s⁻¹]	kon [3] [M⁻¹ s⁻¹]	EC50 [4] [nM]	IC50 of enzymatic inhibition, dansylated lysine incorporation into N,N-dimethylated casein [panel B] [5] [nM]	IC50 of enzymatic inhibition, dansylated lysine incorporation into N,N-dimethylated casein [continued), panel D] [6] [nM]	IC50, extracellular TG activity of HK-2 cells, biotin cadaverine incorporation into fibronectin [7] [nM]	EC50 [8] [nM]	EC50 [9] [nM]	IC50 of enzymatic inhibition, dansylated lysine incorporation into N,N-dimethylated casein [panel B] [10] [nM]	EC50 [11] [nM]	EC50 [12] [nM]	IC50 of enzymatic inhibition, dansylated lysine incorporation into N,N-dimethylated casein [panel A] [10] [nM]	IC50 of enzymatic inhibition, dansylated lysine incorporation into N,N-dimethylated casein [panel A] [5] [nM]
B1	0.0612	0.11	1.8e-05	160000	0.12	2.4e-05	200000	0.02	7.85	3.85								
B2		0.14	3.7e-05	270000	< 0.04	< 1e-05	240000				4.9	0.0738	0.0627	0.985				
B3		< 0.03	< 1e-05	300000			270000				19.8				~0.0474	0.0561	5.99	8.51
